# Target: the molecule itself
# Experiment: direct infusion mass spectrometry
protein,measurement,value
"ParD antitoxin (PA0125) from Pseudomonas aeruginosa, wild type (natural protein) MSTVVSFRADDALVAALDELARATHRDRPYHLRQALAQYLERQQWQVAAIDEGLADANAGRLLEHIEIEKRWGLQ",stoichiometry N,2

# From doi:10.1101/2021.03.29.437564 (bioRxiv, 2021)
